Test results as given in patent US20040072285A1 (OREGON HEALTH AND SCIENCE UNIVERSITY, published 2004).

B1: P4.33 protein (IGFBP-3 receptor, IGFBP-3R), untagged / endogenous (receptor)
chain: SFLLTHRTGLRSPDIPQDWVSFLRSFGQLTLCPRNGTVTGKWRGSHVVGLLTTLNFGDGPDRNKTRTFQATVLGSQMGLKGSSAGQLVLITARVTTERTAGTCLYFSAVPGILPSSQPPISCSEEGAGNATLSPRMGEECVSVWSHEGLVLTKLLTSEELALCGSRLLVLGSFLLLFCGLLCCVTAMCFHPRRESHWSRTRL
B2: IGFBP-3 fragment comprising amino acids 88-148 (peptide, UniProt P17936 115-175, looked up)
chain: VNASAVSRLRAYLLPAPPAPGNASESEEDRSAGSVESPSVSSTHRVSDPKFHPLHSKIIII
notes: range 88-148; also called IGFBP-3 fragment 88-148
B3: IGFBP-3 fragment comprising amino acids 98-264 (other, UniProt P17936 125-291, looked up)
chain: AYLLPAPPAPGNASESEEDRSAGSVESPSVSSTHRVSDPKFHPLHSKIIIIKKGHAKDSQRYKVDYESQSTDTQNFSSESKRETEYGPCRREMEDTLNHLKFLNVLSPRGVHIPNCDKKGFYKKKQCRPSKGRKRGFCWCVDKYGQPLPGYTTKGKEDVHCYSMQSK
notes: range 98-264; also called IGFBP-3 fragment 98-264

Key:
[1] = target: T1, Insulin-like Growth Factor Binding Protein-3 (IGFBP-3) (UniProt P17936 28-291, limits assumed, 125I label or OregonGreen label in some assays (sites not given)); assay: cell-surface binding with unlabelled IGFBP-3 as competitor, Hs578T cells transfected with un-tagged clone 4.33
T1 construct: mature; Also used for IGFBP-3 expressed by the cells themselves (Hs578T, PC-3, MCF-7:BP-3 lines) in the functional rows; also called unlabelled IGFBP-3
Method: Cell surface binding assay. Cells were seeded into 24-well plates and grown to 60-70% confluency, then transfected according to manufacturer instructions in serum-containing medium for 36 hours. Sf9 cells were seeded into 24-well plates and infected with virus harboring the 4-33^F cDNA for 48 hours. Cells were washed in cold PBS, then incubated for 3 hours at 12° C. in binding buffer (1× Hank's buffered salt solution, 1 mM CaCl₂, 1 mM MgCl₂, 0.5% BSA) containing [¹²⁵I]-IGFBP-3 (Diagnostic Systems Laboratories) at 50,000 cpm per well in triplicate, with or without unlabelled IGFBP-3 as indicated in the text below. The binding solution was then aspirated and the cells washed in cold binding buffer (without BSA), lysed in 0.25 N NaOH, and the radiolabelled IGFBP-3 present in each lysate was detected in a gamma counter.
Cells were then washed and exposed to [¹²⁵I]-labelled IGFBP-3 plus and minus increasing amounts of unlabelled IGFBP-3 as indicated for 3 hours at 12° C.

[2] = target: B1; assay: cell-surface competition assay; competitor of full-length IGFBP-3

Row | Binder | binding result [1] | binding result [2]
1 | B1 | binds | –
2 | B2 | – | binds
3 | B3 | – | binds
